Drawing on US6984774, this text covers activity for 1 substance.

The data set concerns Ac transposase (Zea mays). Nature of the data set: cell_activity. To be noted: in Arabidopsis; GUS recombination stimulated over no-Ac control; Ds excision footprint confirmed by PCR and sequencing; binding not measured directly.

Regarding Ds element in GU-Ds-US construct, the activity was above 1000 fold.
